Source: paper PMC7473174 (Cell reports, 2020)

Target: GST-(TEV)-ZGRF1-(His)6 (human, UniProt Q86YA3 1-2104)
Experiment: pull-down

Sequence of GST-(TEV)-ZGRF1-(His)6 (Q86YA3 whole entry): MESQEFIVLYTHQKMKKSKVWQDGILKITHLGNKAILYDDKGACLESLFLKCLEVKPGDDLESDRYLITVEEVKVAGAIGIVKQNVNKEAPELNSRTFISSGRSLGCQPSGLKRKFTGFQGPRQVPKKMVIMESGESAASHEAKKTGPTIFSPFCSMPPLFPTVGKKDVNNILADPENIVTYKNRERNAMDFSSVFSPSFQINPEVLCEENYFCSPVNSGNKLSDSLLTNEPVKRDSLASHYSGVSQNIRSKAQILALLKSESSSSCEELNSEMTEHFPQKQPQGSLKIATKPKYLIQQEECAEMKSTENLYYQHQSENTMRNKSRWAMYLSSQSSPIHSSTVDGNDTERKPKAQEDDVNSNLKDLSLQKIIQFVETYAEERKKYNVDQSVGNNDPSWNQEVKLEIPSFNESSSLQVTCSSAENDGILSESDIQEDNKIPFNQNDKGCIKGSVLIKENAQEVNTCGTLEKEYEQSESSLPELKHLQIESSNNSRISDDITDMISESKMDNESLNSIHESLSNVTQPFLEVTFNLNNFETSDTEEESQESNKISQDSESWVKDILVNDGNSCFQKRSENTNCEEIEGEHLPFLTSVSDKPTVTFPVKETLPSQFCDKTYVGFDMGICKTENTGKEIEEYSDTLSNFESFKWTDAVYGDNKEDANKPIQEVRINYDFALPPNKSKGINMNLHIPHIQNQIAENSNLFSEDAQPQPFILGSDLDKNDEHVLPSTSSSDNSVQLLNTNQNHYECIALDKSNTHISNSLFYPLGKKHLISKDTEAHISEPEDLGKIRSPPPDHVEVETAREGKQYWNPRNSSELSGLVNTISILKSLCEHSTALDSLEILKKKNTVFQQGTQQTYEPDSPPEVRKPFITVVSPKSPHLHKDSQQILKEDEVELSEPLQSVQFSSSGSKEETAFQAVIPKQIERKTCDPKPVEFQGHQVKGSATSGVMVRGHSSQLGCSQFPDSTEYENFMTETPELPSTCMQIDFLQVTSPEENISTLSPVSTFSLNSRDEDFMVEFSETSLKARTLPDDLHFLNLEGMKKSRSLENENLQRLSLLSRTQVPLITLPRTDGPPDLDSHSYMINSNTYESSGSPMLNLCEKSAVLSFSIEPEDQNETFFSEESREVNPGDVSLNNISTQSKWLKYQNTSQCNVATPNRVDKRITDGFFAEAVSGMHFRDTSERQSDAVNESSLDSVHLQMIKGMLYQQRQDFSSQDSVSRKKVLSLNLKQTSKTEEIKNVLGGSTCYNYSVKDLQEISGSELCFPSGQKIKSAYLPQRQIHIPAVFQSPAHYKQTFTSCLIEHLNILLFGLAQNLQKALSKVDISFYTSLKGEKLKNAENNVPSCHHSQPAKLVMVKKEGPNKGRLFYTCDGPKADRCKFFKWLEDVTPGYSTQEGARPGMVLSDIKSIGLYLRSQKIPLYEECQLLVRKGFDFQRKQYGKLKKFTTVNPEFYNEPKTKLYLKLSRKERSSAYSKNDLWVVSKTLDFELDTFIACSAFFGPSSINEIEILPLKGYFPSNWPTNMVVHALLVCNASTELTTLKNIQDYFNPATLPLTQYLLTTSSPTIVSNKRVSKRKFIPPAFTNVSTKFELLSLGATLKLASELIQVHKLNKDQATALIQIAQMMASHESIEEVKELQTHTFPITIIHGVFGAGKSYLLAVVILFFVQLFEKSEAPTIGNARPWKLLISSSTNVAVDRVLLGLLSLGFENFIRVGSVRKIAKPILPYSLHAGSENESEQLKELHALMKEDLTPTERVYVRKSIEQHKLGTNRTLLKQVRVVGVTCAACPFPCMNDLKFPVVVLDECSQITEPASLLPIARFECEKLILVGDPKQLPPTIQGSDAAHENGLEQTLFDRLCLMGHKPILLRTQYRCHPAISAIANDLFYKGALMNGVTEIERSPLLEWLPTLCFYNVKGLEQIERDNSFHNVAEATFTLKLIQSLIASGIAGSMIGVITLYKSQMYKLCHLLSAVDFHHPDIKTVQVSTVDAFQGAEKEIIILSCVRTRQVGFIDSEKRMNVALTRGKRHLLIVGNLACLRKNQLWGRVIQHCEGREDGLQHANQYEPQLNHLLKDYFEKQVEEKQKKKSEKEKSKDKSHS

B1: human RAD51 (natural protein, UniProt Q06609 1-339, looked up)
chain: MAMQMQLEANADTSVEEESFGPQPISRLEQCGINANDVKKLEEAGFHTVEAVAYAPKKELINIKGISEAKADKILAEAAKLVPMGFTTATEFHQRRSEIIQITTGSKELDKLLQGGIETGSITEMFGEFRTGKTQICHTLAVTCQLPIDRGGGEGKAMYIDTEGTFRPERLLAVAERYGLSGSDVLDNVAYARAFNTDHQTQLLYQASAMMVESRYALLIVDSATALYRTDYSGRGELSARQMHLARFLRMLLRLADEFGVAVVITNQVVAQVDGAAMFAADPKKPIGGNIIAHASTTRLYLRKGRGETRICKIYDSPCLPEAEAMFAINADGVGDAKD
B1: binds.
